Data taken from patent publication US20260115255A1 (CYTUNE PHARMA, published 2026).

What was measured:
FcγRIIIa F158 = biological target: T1, FcγRIIIa F158 (human, UniProt P08637 17-208); experiment: SPR; ratio of affinity (1/Kd) for FcγRIIIa F158 to affinity for FcγRIIb
T1 construct: Captured on the chip through an anti-His tag antibody; construct not described; also called hFcγRIIIaF158; CD16a F158
Procedure: (§1) SPR experiments were performed on a Biacore 8K (Cytiva, Chicago, IL, USA), using CM5 sensor chips (Cytiva) with an immobilization using THE His tag antibodies (Genscript). FcγRIIIa V158, FcγRIIIa F158 or FcγRIIb protein were used for capture with a contact time of 30 sec at a flow rate of […] in a 1×HBS-EP+ running buffer. Association/dissociation rates were measured for each tested immunocytokine at a flow rate of 30 μl/min with concentration serial dilution in a suitable range with an association time/dissociation time of 300 s/300 s except for constructs with DLE and DE with and without afucosylation, where association/dissociation time of 120 s/1200 s was applied.

FcγRIIIa V158 = biological target: T2, FcγRIIIa V158 (human, UniProt P08637 17-208); experiment: SPR; ratio of affinity (1/Kd) for FcγRIIIa V158 to affinity for FcγRIIb
T2 construct: Captured on the chip through an anti-His tag antibody, so it carries a His tag; construct not described; also called hFcγRIIIaV158; FcγIIIa V158
Procedure: as §1

| A/I (F158) (FcγRIIIa F158) | A/I (V158) (FcγRIIIa V158) | Binder |
| --- | --- | --- |
| 228 | 464 | hCl1a DLE-RLI DANA (other, also called SOT202-DLE-DANA; copies: 1 + 1 + 2) heavy 1: QVQLVQSGAEVKKPGASVKVSCKASGYTFTDYAMHWVRQAPGQRLEWMGWINTYTGKPTYAQKFQGRVTITRDTSASTAYMELSSLRSEDTAVYYCARAVFYGYTMDAWGQGTLVTVSSASTKGPSVFPLAPSSKSTSGGTAALGCLVKDYFPEPVTVSWNSGALTSGVHTFPAVLQSSGLYSLSSVVTVPSSSLGTQTYICNVNHKPSNTKVDKKVEPKSCDKTHTCPPCPAPELLGGPDVFLFPPKPKDTLMISRTPEVTCVVVDVSHEDPEVKFNWYVDGVEVHNAKTKPREEQYNSTYRVVSVLTVLHQDWLNGKEYKCKVSNKALPLPEEKTISKAKGQPREPQVYTLPPSRDELTKNQVSLWCLVKGFYPSDIAVEWESNGQPENNYKTTPPVLDSDGSFFLYSKLTVDKSRWQQGNVFSCSVMHEALHNHYTQKSLSLSPGITCPPPMSVEHADIWVKSYSLYSRERYICNSGFKRKAGTSSLTECVLNKATNVAHWTTPSLKCIRDPALVHQRPAPPSGGSGGGGSGGGSGGGGSGGNWVNVISDLKKIEDLIQSMHIDATLYTESDVHPSCKVTAMKCFLLELQVISLESGDASIHATVEALIILANNSLSSNAQVTESGCKECEELEEKNIKEFLQSFVHIVQMFINTS heavy 2: QVQLVQSGAEVKKPGASVKVSCKASGYTFTDYAMHWVRQAPGQRLEWMGWINTYTGKPTYAQKFQGRVTITRDTSASTAYMELSSLRSEDTAVYYCARAVFYGYTMDAWGQGTLVTVSSASTKGPSVFPLAPSSKSTSGGTAALGCLVKDYFPEPVTVSWNSGALTSGVHTFPAVLQSSGLYSLSSVVTVPSSSLGTQTYICNVNHKPSNTKVDKKVEPKSCDKTHTCPPCPAPELLGGPDVFLFPPKPKDTLMISRTPEVTCVVVDVSHEDPEVKFNWYVDGVEVHNAKTKPREEQYNSTYRVVSVLTVLHQDWLNGKEYKCKVSNKALPLPEEKTISKAKGQPREPQVYTLPPSRDELTKNQVSLSCAVKGFYPSDIAVEWESNGQPENNYKTTPPVLDSDGSFFLVSKLTVDKSRWQQGNVFSCSVMHEALHNHYTQKSLSLSPG light: DIQMTQSPSSLSASVGDRVTITCRASEDIYSNLAWYQQKPGKAPKLLIFSVKRLQDGVPSRFSGSGSGTDFTLTISSLQPEDFATYYCLQGSNFPLTFGQGTKVEIKRTVAAPSVFIFPPSDEQLKSGTASVVCLLNNFYPREAKVQWKVDNALQSGNSQESVTEQDSKDSTYSLSSTLTLSKADYEKHKVYACEVTHQGLSSPVTKSFNRGEC |
| 9370 | 13700 | hCl1a DLE-RLI DANA afuc (other, Afucosylated Fc N-glycan (N297, both heavy chains); the letters cannot carry it., Same chains as m4, afucosylated; copies: 1 + 1 + 2) heavy 1: QVQLVQSGAEVKKPGASVKVSCKASGYTFTDYAMHWVRQAPGQRLEWMGWINTYTGKPTYAQKFQGRVTITRDTSASTAYMELSSLRSEDTAVYYCARAVFYGYTMDAWGQGTLVTVSSASTKGPSVFPLAPSSKSTSGGTAALGCLVKDYFPEPVTVSWNSGALTSGVHTFPAVLQSSGLYSLSSVVTVPSSSLGTQTYICNVNHKPSNTKVDKKVEPKSCDKTHTCPPCPAPELLGGPDVFLFPPKPKDTLMISRTPEVTCVVVDVSHEDPEVKFNWYVDGVEVHNAKTKPREEQYNSTYRVVSVLTVLHQDWLNGKEYKCKVSNKALPLPEEKTISKAKGQPREPQVYTLPPSRDELTKNQVSLWCLVKGFYPSDIAVEWESNGQPENNYKTTPPVLDSDGSFFLYSKLTVDKSRWQQGNVFSCSVMHEALHNHYTQKSLSLSPGITCPPPMSVEHADIWVKSYSLYSRERYICNSGFKRKAGTSSLTECVLNKATNVAHWTTPSLKCIRDPALVHQRPAPPSGGSGGGGSGGGSGGGGSGGNWVNVISDLKKIEDLIQSMHIDATLYTESDVHPSCKVTAMKCFLLELQVISLESGDASIHATVEALIILANNSLSSNAQVTESGCKECEELEEKNIKEFLQSFVHIVQMFINTS heavy 2: QVQLVQSGAEVKKPGASVKVSCKASGYTFTDYAMHWVRQAPGQRLEWMGWINTYTGKPTYAQKFQGRVTITRDTSASTAYMELSSLRSEDTAVYYCARAVFYGYTMDAWGQGTLVTVSSASTKGPSVFPLAPSSKSTSGGTAALGCLVKDYFPEPVTVSWNSGALTSGVHTFPAVLQSSGLYSLSSVVTVPSSSLGTQTYICNVNHKPSNTKVDKKVEPKSCDKTHTCPPCPAPELLGGPDVFLFPPKPKDTLMISRTPEVTCVVVDVSHEDPEVKFNWYVDGVEVHNAKTKPREEQYNSTYRVVSVLTVLHQDWLNGKEYKCKVSNKALPLPEEKTISKAKGQPREPQVYTLPPSRDELTKNQVSLSCAVKGFYPSDIAVEWESNGQPENNYKTTPPVLDSDGSFFLVSKLTVDKSRWQQGNVFSCSVMHEALHNHYTQKSLSLSPG light: DIQMTQSPSSLSASVGDRVTITCRASEDIYSNLAWYQQKPGKAPKLLIFSVKRLQDGVPSRFSGSGSGTDFTLTISSLQPEDFATYYCLQGSNFPLTFGQGTKVEIKRTVAAPSVFIFPPSDEQLKSGTASVVCLLNNFYPREAKVQWKVDNALQSGNSQESVTEQDSKDSTYSLSSTLTLSKADYEKHKVYACEVTHQGLSSPVTKSFNRGEC |

Further lines, the binder ahead of its results:

| Binder | A/I (F158) (FcγRIIIa F158) | A/I (V158) (FcγRIIIa V158) |
| --- | --- | --- |
| hCl1a (antibody) chain 1: not shown chain 2: DIQMTQSPSSLSASVGDRVTITCRASEDIYSNLAWYQQKPGKAPKLLIFSVKRLQDGVPSRFSGSGSGTDFTLTISSLQPEDFATYYCLQGSNFPLTFGQGTKVEIKRTVAAPSVFIFPPSDEQLKSGTASVVCLLNNFYPREAKVQWKVDNALQSGNSQESVTEQDSKDSTYSLSSTLTLSKADYEKHKVYACEVTHQGLSSPVTKSFNRGEC | 20.6 | 83.8 |
| hCl1a AAA-RLI DANA (other, See note of m4; also called SOT202-AAA-DANA; copies: 1 + 1 + 2) heavy 1: QVQLVQSGAEVKKPGASVKVSCKASGYTFTDYAMHWVRQAPGQRLEWMGWINTYTGKPTYAQKFQGRVTITRDTSASTAYMELSSLRSEDTAVYYCARAVFYGYTMDAWGQGTLVTVSSASTKGPSVFPLAPSSKSTSGGTAALGCLVKDYFPEPVTVSWNSGALTSGVHTFPAVLQSSGLYSLSSVVTVPSSSLGTQTYICNVNHKPSNTKVDKKVEPKSCDKTHTCPPCPAPELLGGPSVFLFPPKPKDTLMISRTPEVTCVVVDVSHEDPEVKFNWYVDGVEVHNAKTKPREEQYNATYRVVSVLTVLHQDWLNGKEYKCKVSNKALPAPIAATISKAKGQPREPQVYTLPPSRDELTKNQVSLWCLVKGFYPSDIAVEWESNGQPENNYKTTPPVLDSDGSFFLYSKLTVDKSRWQQGNVFSCSVMHEALHNHYTQKSLSLSPGITCPPPMSVEHADIWVKSYSLYSRERYICNSGFKRKAGTSSLTECVLNKATNVAHWTTPSLKCIRDPALVHQRPAPPSGGSGGGGSGGGSGGGGSGGNWVNVISDLKKIEDLIQSMHIDATLYTESDVHPSCKVTAMKCFLLELQVISLESGDASIHATVEALIILANNSLSSNAQVTESGCKECEELEEKNIKEFLQSFVHIVQMFINTS heavy 2: QVQLVQSGAEVKKPGASVKVSCKASGYTFTDYAMHWVRQAPGQRLEWMGWINTYTGKPTYAQKFQGRVTITRDTSASTAYMELSSLRSEDTAVYYCARAVFYGYTMDAWGQGTLVTVSSASTKGPSVFPLAPSSKSTSGGTAALGCLVKDYFPEPVTVSWNSGALTSGVHTFPAVLQSSGLYSLSSVVTVPSSSLGTQTYICNVNHKPSNTKVDKKVEPKSCDKTHTCPPCPAPELLGGPSVFLFPPKPKDTLMISRTPEVTCVVVDVSHEDPEVKFNWYVDGVEVHNAKTKPREEQYNATYRVVSVLTVLHQDWLNGKEYKCKVSNKALPAPIAATISKAKGQPREPQVYTLPPSRDELTKNQVSLSCAVKGFYPSDIAVEWESNGQPENNYKTTPPVLDSDGSFFLVSKLTVDKSRWQQGNVFSCSVMHEALHNHYTQKSLSLSPG light: DIQMTQSPSSLSASVGDRVTITCRASEDIYSNLAWYQQKPGKAPKLLIFSVKRLQDGVPSRFSGSGSGTDFTLTISSLQPEDFATYYCLQGSNFPLTFGQGTKVEIKRTVAAPSVFIFPPSDEQLKSGTASVVCLLNNFYPREAKVQWKVDNALQSGNSQESVTEQDSKDSTYSLSSTLTLSKADYEKHKVYACEVTHQGLSSPVTKSFNRGEC | 244 | 691 |
| hCl1a AAA-RLI DANA afuc (other, Afucosylated Fc N-glycan (N297, both heavy chains); the letters cannot carry it., Same chains as m6, afucosylated; copies: 1 + 1 + 2) heavy 1: QVQLVQSGAEVKKPGASVKVSCKASGYTFTDYAMHWVRQAPGQRLEWMGWINTYTGKPTYAQKFQGRVTITRDTSASTAYMELSSLRSEDTAVYYCARAVFYGYTMDAWGQGTLVTVSSASTKGPSVFPLAPSSKSTSGGTAALGCLVKDYFPEPVTVSWNSGALTSGVHTFPAVLQSSGLYSLSSVVTVPSSSLGTQTYICNVNHKPSNTKVDKKVEPKSCDKTHTCPPCPAPELLGGPSVFLFPPKPKDTLMISRTPEVTCVVVDVSHEDPEVKFNWYVDGVEVHNAKTKPREEQYNATYRVVSVLTVLHQDWLNGKEYKCKVSNKALPAPIAATISKAKGQPREPQVYTLPPSRDELTKNQVSLWCLVKGFYPSDIAVEWESNGQPENNYKTTPPVLDSDGSFFLYSKLTVDKSRWQQGNVFSCSVMHEALHNHYTQKSLSLSPGITCPPPMSVEHADIWVKSYSLYSRERYICNSGFKRKAGTSSLTECVLNKATNVAHWTTPSLKCIRDPALVHQRPAPPSGGSGGGGSGGGSGGGGSGGNWVNVISDLKKIEDLIQSMHIDATLYTESDVHPSCKVTAMKCFLLELQVISLESGDASIHATVEALIILANNSLSSNAQVTESGCKECEELEEKNIKEFLQSFVHIVQMFINTS heavy 2: QVQLVQSGAEVKKPGASVKVSCKASGYTFTDYAMHWVRQAPGQRLEWMGWINTYTGKPTYAQKFQGRVTITRDTSASTAYMELSSLRSEDTAVYYCARAVFYGYTMDAWGQGTLVTVSSASTKGPSVFPLAPSSKSTSGGTAALGCLVKDYFPEPVTVSWNSGALTSGVHTFPAVLQSSGLYSLSSVVTVPSSSLGTQTYICNVNHKPSNTKVDKKVEPKSCDKTHTCPPCPAPELLGGPSVFLFPPKPKDTLMISRTPEVTCVVVDVSHEDPEVKFNWYVDGVEVHNAKTKPREEQYNATYRVVSVLTVLHQDWLNGKEYKCKVSNKALPAPIAATISKAKGQPREPQVYTLPPSRDELTKNQVSLSCAVKGFYPSDIAVEWESNGQPENNYKTTPPVLDSDGSFFLVSKLTVDKSRWQQGNVFSCSVMHEALHNHYTQKSLSLSPG light: DIQMTQSPSSLSASVGDRVTITCRASEDIYSNLAWYQQKPGKAPKLLIFSVKRLQDGVPSRFSGSGSGTDFTLTISSLQPEDFATYYCLQGSNFPLTFGQGTKVEIKRTVAAPSVFIFPPSDEQLKSGTASVVCLLNNFYPREAKVQWKVDNALQSGNSQESVTEQDSKDSTYSLSSTLTLSKADYEKHKVYACEVTHQGLSSPVTKSFNRGEC | 380 | 1010 |
